From patent US11649285B2 come the findings set out here.

This assay has as its target human VISTA, native (on anti-CD3-activated human T cells and PBMCs) (human (homo sapiens)).

control recombinant human IgG1 Fc: the division of CFSE-labeled human CD3+ T cells with plate-bound anti-CD3 and control rhIgG1Fc, flow cytometry (% CD3+ T cells dividing (72 hours)) is greater than 40.
